Test results: IntAct's records for PubMed 23434407

Columns and labels:
cab39_human CAB39 [1] = molecular target: cab39_human CAB39 (UniProt Q9Y376)
cab39_human CAB39 [2] = molecular target: cab39_human CAB39 (UniProt Q9Y376); remark: listed apart in the source
cab39_human CAB39 [3] = molecular target: cab39_human CAB39 (UniProt Q9Y376); remark: listed apart in the source
cab39_human CAB39 [4] = molecular target: cab39_human CAB39 (UniProt Q9Y376); remark: listed apart in the source

cab39_human CAB39, sequence (Q9Y376 whole entry): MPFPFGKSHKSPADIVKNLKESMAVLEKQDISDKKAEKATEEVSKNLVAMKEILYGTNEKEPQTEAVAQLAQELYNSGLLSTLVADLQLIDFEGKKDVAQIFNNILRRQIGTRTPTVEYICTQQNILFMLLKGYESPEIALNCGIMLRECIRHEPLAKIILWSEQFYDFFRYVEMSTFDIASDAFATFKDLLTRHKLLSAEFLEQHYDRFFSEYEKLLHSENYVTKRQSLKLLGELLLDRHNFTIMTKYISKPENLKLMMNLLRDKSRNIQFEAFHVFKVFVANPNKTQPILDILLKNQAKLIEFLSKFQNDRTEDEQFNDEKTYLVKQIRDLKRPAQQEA
Serine/threonine-protein kinase 26 (Homo sapiens), Q9P289-1 W324E, sequence (Q9P289 whole entry W324E): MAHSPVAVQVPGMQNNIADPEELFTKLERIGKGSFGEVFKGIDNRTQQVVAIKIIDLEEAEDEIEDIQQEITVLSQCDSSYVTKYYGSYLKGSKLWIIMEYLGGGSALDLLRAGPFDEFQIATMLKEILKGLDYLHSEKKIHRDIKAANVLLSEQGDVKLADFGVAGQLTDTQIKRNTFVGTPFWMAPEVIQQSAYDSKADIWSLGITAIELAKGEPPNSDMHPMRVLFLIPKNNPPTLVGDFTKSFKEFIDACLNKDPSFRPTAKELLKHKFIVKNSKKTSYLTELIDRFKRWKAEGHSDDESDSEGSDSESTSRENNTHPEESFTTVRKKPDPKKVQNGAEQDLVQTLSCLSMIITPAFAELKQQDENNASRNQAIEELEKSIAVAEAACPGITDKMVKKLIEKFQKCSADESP
Serine/threonine-protein kinase 26 (Homo sapiens), Q9P289-1 L90E;L95E, sequence (Q9P289 whole entry L90E/L95E): as the sequence (Q9P289 whole entry W324E) above, with L90E, L95E, E324W counted along it
Serine/threonine-protein kinase 26 (Homo sapiens), Q9P289-1 L95E, sequence (Q9P289 whole entry L95E): as the sequence (Q9P289 whole entry W324E) above, with L95E, E324W counted along it
Serine/threonine-protein kinase 26 (Homo sapiens), Q9P289-1 Y134A, sequence (Q9P289 whole entry Y134A): as the sequence (Q9P289 whole entry W324E) above, with Y134A, E324W counted along it
Serine/threonine-protein kinase 26 (Homo sapiens), Q9P289-1 E58A, sequence (Q9P289 whole entry E58A): as the sequence (Q9P289 whole entry W324E) above, with E58A, E324W counted along it
Serine/threonine-protein kinase 26 (Homo sapiens), Q9P289-1 E138A, sequence (Q9P289 whole entry E138A): as the sequence (Q9P289 whole entry W324E) above, with E138A, E324W counted along it
Serine/threonine-protein kinase 26 (Homo sapiens), Q9P289-1 F229A, sequence (Q9P289 whole entry F229A): as the sequence (Q9P289 whole entry W324E) above, with F229A, E324W counted along it
Serine/threonine-protein kinase 26 (Homo sapiens), Q9P289-1 M225E, sequence (Q9P289 whole entry M225E): as the sequence (Q9P289 whole entry W324E) above, with M225E, E324W counted along it
Serine/threonine-protein kinase 26 (Homo sapiens), Q9P289-1 D162A, sequence (Q9P289 whole entry D162A): as the sequence (Q9P289 whole entry W324E) above, with D162A, E324W counted along it
Serine/threonine-protein kinase 26 (Homo sapiens), Q9P289-1 L228E, sequence (Q9P289 whole entry L228E): as the sequence (Q9P289 whole entry W324E) above, with L228E, E324W counted along it
Serine/threonine-protein kinase 26 (Homo sapiens), Q9P289-1 D242A;K276A, sequence (Q9P289 whole entry D242A/K276A): as the sequence (Q9P289 whole entry W324E) above, with D242A, K276A, E324W counted along it

| effect of a mutation on the interaction (cab39_human CAB39 [1]) | effect of a mutation on the interaction (cab39_human CAB39 [2]) | effect of a mutation on the interaction (cab39_human CAB39 [3]) | Substance | also measured |
| --- | --- | --- | --- | --- |
| decreasing interaction strength | – | – | Serine/threonine-protein kinase 26 (Homo sapiens), Q9P289-1 E138A | – |
| – | decreasing interaction strength | – | Serine/threonine-protein kinase 26 (Homo sapiens), Q9P289-1 E58A | – |
| – | – | decreasing interaction strength | Serine/threonine-protein kinase 26 (Homo sapiens), Q9P289-1 F229A | – |
| disrupting interaction strength | decreasing interaction strength | – | Serine/threonine-protein kinase 26 (Homo sapiens), Q9P289-1 L90E;L95E | – |
| – | – | decreasing interaction strength | Serine/threonine-protein kinase 26 (Homo sapiens), Q9P289-1 M225E | – |
| – | – | – | Serine/threonine-protein kinase 26 (Homo sapiens), Q9P289-1 D162A | effect of a mutation on the interaction (cab39_human CAB39 [4]): decreasing interaction strength |
| disrupting interaction strength | decreasing interaction strength | – | Serine/threonine-protein kinase 26 (Homo sapiens), Q9P289-1 Y134A | – |
| – | – | decreasing interaction strength | Serine/threonine-protein kinase 26 (Homo sapiens), Q9P289-1 L228E | – |
| – | – | decreasing interaction strength | Serine/threonine-protein kinase 26 (Homo sapiens), Q9P289-1 D242A;K276A | – |
| disrupting interaction strength | decreasing interaction strength | – | Serine/threonine-protein kinase 26 (Homo sapiens), Q9P289-1 W324E | – |
| disrupting interaction strength | decreasing interaction strength | – | Serine/threonine-protein kinase 26 (Homo sapiens), Q9P289-1 L95E | – |
